Data on one molecule can be found in patent publication US20240018269A1 (MACFARLANE BURNET INSTITUTE FOR MEDICAL RESEARCH AND PUBLIC …, published 2024).

For assay [1], the target named is T1, human FcγRI expressed on the cell surface (human, UniProt P12314 16-374).
T1 construct: whole, on cells; Co-expressed with the FcR common γ chain
The assay is described as follows: flow cytometry; monomeric IgG on IIA1.6 cells expressing FcγRI. How it is done: (§1) Antibody FcγR binding was measured using either immune complexes or monomeric IgG. Immune complexes were generated by incubating the anti-TNP antibodies (parental or mutant anti-TNP IgG) with TNP-BSA at a 2:1 ratio (40 μg/ml:20 μg/ml) for 30 minutes at 37° C. then 10 minutes at 4° C. […] The cells were washed twice, resuspended in […] PBS/0.5% BSA and 10,000 viable cells analysed in at least three experiments. Monomer IgG binding (MFI) were fitted to a single binding site model to determine binding affinity (KA). Similarly immune complex binding is reported as apparent affinity (K app).
In general terms: In flow cytometry, cells or beads pass a laser one at a time.

Assay [2] concerns the target T2, recombinant soluble FcγRIIb (human, UniProt P31994 43-217).
T2 construct: extracellular domain; also called rsFcγRIIb
T2 sequence (looked up): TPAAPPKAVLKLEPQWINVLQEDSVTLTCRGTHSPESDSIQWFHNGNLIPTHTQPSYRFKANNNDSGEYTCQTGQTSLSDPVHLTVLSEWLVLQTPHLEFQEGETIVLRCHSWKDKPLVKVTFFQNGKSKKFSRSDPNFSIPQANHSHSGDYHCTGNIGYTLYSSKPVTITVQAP
Description: BLI (Octet); anti-TNP IgG captured on TNP-BSA-biotin, rsFcγR in solution; global 1:1 Langmuir fit. How it is done:
Affinity measurements of IgG:FcR interaction using Bio-Layer Interferometry (OCTET) TNP-BSA was reacted with the EZ-Link™ biotinylation reagent (ThermoFisher Scientific) according to the manufacturer's instructions. The resulting TNP-BSA-biotin (5 μg/ml, 30 sec) was captured to ˜0.8 nm on streptavidin BLI probes using an Octet Red96 (ForteBio; Molecular Devices LLC, San Jose, CA, United States of America) then loaded with anti-TNP IgG (4 μg/ml, 75 sec). A baseline was established (60 sec) followed by the association and dissociation (90s) of a concentration series (15 nM to 20 μM) of rsFcγRIIa-R131 or rsFcγRIIb. Regeneration after each initial reaction TNP-BSA-biotin capture and the subsequent binding cycles used 10 mM HCl.

The target in assay [3] is T3, human FcγRIIIa-F158 expressed on the cell surface (human, UniProt P08637 17-254).
T3 construct: whole, on cells; Co-expressed with the FcR common γ chain (FcRγ-EGFP)
Description: flow cytometry; immune complexes with TNP-BSA on IIA1.6 cells expressing the FcγR. As to the method: as §1
(§2) The interaction of the mutant IgGs with the human FcγRs on the cell surface was evaluated by flow cytometry and compared to the binding of parental IgG2 or IgG4 as well as to IgG1, the “universal” ligand for all human FcγR. Binding to the low affinity human FcγR (FcγRIIb, FcγRIIa, and FcγRIII) was performed using immune complexes (FIG. 1A-E). Binding to the high affinity FcγRI was determined using monomeric IgG (FIG. 1F). […] Uncomplexed, monomeric IgG1 and IgG4, but not IgG2, bound to the high affinity FcγRI.

The target in assay [4] is T4, human FcγRIIIa-V158 expressed on the cell surface (human, UniProt P08637 17-254).
T4 construct: whole, on cells; Co-expressed with the FcR common γ chain (FcRγ-EGFP)
The description is as above. As to the method: as §1, §2

The target of assay [5] is T5, human FcγRIIa-R131 expressed on the cell surface (human, UniProt P12318 34-317).
T5 construct: whole, on cells
T5 sequence (looked up): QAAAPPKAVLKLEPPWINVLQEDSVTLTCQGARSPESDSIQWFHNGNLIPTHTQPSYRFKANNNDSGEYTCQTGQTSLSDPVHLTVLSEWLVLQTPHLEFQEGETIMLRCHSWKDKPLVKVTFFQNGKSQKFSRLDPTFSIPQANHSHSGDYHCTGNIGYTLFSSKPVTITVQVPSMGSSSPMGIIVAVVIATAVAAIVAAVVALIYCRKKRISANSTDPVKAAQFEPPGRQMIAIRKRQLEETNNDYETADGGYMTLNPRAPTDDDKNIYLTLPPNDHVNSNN
The assay is described as above. How it is done: as §1, §2

Assay [6] concerns the target T6, human FcγRIIa-H131 expressed on the cell surface (human, UniProt P12318 34-317).
T6 construct: whole, on cells
T6 sequence (looked up): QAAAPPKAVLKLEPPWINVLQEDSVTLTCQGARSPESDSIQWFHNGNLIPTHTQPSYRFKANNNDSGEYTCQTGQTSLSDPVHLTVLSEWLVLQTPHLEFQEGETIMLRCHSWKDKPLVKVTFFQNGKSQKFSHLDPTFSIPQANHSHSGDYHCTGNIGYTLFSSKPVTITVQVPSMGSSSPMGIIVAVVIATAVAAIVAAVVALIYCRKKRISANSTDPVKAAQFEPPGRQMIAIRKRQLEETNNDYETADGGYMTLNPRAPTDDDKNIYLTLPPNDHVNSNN
The description is as above. How it is done: as §1, §2

T3 sequence (P08637 17-254): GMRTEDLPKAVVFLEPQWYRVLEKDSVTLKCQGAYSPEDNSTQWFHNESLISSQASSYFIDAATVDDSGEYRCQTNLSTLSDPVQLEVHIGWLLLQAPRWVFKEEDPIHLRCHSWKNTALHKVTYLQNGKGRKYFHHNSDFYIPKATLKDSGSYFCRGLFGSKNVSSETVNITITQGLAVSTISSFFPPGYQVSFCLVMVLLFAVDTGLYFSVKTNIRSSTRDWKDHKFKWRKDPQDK
T4 sequence (P08637 17-254 F176V): as the sequence (P08637 17-254) above, with F160V counted along it
T1 sequence (P12314 16-374): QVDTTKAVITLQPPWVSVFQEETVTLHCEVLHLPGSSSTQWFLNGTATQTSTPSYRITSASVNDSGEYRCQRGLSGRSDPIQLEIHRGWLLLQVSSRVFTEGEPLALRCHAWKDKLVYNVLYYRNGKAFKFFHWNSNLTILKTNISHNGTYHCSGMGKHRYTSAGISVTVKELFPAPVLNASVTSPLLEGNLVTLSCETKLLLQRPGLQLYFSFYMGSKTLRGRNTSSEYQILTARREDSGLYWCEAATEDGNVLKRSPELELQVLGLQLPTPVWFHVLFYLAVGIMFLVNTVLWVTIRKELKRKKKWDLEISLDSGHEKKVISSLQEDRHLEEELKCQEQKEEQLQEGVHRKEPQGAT

B1: chimeric anti-TNP human IgG2 (IgG2-WT) (antibody)
heavy: EVQLQESGPSLVKPSQTLSLTCSVTGDSITSGYWNWIRQVPGNKLEYMGFINYSGNTYYNPSLRSRISITRDTSKNQYFLHLNSVTTEDTATYYCARANWDVFAYWGQGTLVTVSAASTKGPSVFPLAPCSRSTSESTAALGCLVKDYFPEPVTVSWNSGALTSGVHTFPAVLQSSGLYSLSSVVTVPSSNFGTQTYTCNVDHKPSNTKVDKTVERKCCVECPPCPAPPVAGPSVFLFPPKPKDTLMISRTPEVTCVVVDVSHEDPEVQFNWYVDGVEVHNAKTKPREEQFNSTFRVVSVLTVVHQDWLNGKEYKCKVSNKGLPAPIEKTISKTKGQPREPQVYTLPPSREEMTKNQVSLTCLVKGFYPSDIAVEWESNGQPENNYKTTPPMLDSDGSFFLYSKLTVDKSRWQQGNVFSCSVMHEALHNHYTQKSLSLSLGK
light: not shown
notes: also called parental IgG2; wild type IgG2
On to B1, for which the binding result in assay [1] is on record as “no binding”; in assay [3], “no binding”; in assay [4], “no binding”; in assay [5], “no binding”; in assay [6], “binds”. In addition, the Ka in assay [2] is 59000 M⁻¹.
